Test results published in patent US6746838.

System: anti-ras optimised three-finger peptide (F1 +3 Asn) finger 1 helix position +3 S->N (synthetic)
Assay: ELISA
Conditions: apparent Kd; phage-displayed; equal to wild-type Zif268 DBD; Zn

GTGGTGGGCGCCGTCGGTGTGGGCAAG (double strand) [EJ (G12V) mutant H-ras site]
Kd: 3 nM
